Results: PMC10802472 (bioRxiv, 2024)

Molecular target: the molecule itself
Test: cryo-EM structure

Protein | stoichiometry N
ACAD11 K* mutant (kinase-inactive mouse ACAD11) (enzyme, UniProt Q80XL6 1-779, looked up) METDVTSDTVEVLPQHKFDLRSLEAYLNQHLPGFGSDSRAVLTVTQYRSGQSNPTFFLQKGSQAYVLRKKPPGSLLPKAHKIDREFKIQKALFSIGFPVAKPLLYCRDASVIGTEFYVMEHVQGRIFRDFSIPGVSSAERAAIYVSVAETLAWLHSLDIRSLKLDKYGTGVGYCKRQVSTWTKQYQASAHQSIPAMDQLSTWLMKNLPDSDSEECLVHGAFKLDNIVFHPKECRVIAVLDWELSTFGHPLTDLAHLSLFYYWPRTLPMINRGSHIPENTGIPLMEELISIYCHRRGIDPNLPNWNFFMALSFFKLAGISQGVYRRYLMGNNSSEDSFLTANTVQPLAETGLQLSKRTLRTTPPQADAKSQLFAQSRRGQEVLTRVKQFMKQHVFPAEKEVAEYYAQSGNSAEKWGHPLVIEKLKEMAKAEGLWNLFLPAVSGLSQVDYALIAEETGKCFFAPDVFNCQAPDTGNMEVLHLYGSEQQKKQWLEPLLRGDITSVFCMTEPNVSSSDATNIECTIQRDGGGYIVNGKKWWSSGAGNPKCKIAIVLGRTESPSASRHRQHSMILVPMDTPGVELIRPLSVFGYMDNMHGGHWEVHFNHVRVPASNLILGEGRGFEISQGRLGPGRIHHCMRTVGLAERILQIMCDRAVQREAFKKKLYEHEVVAHWIAKSRIAIEEIRLLTLKAAHSIDTLGSASARKEIAMIKVAAPKAVCKIADWAIQVHGGAGVSQDYPLANMYAIIRTLRLADGPDEVHLSAIAKMELQDQARRLTARM | 4
ACAD11 A* mutant (ACAD-inactive mouse ACAD11) (enzyme, UniProt Q80XL6 1-779, looked up) METDVTSDTVEVLPQHKFDLRSLEAYLNQHLPGFGSDSRAVLTVTQYRSGQSNPTFFLQKGSQAYVLRKKPPGSLLPKAHKIDREFKIQKALFSIGFPVAKPLLYCRDASVIGTEFYVMEHVQGRIFRDFSIPGVSSAERAAIYVSVAETLAWLHSLDIRSLKLDKYGTGVGYCKRQVSTWTKQYQASAHQSIPAMDQLSTWLMKNLPDSDSEECLVHGDFKLDNIVFHPKECRVIAVLDWELSTFGHPLTDLAHLSLFYYWPRTLPMINRGSHIPENTGIPLMEELISIYCHRRGIDPNLPNWNFFMALSFFKLAGISQGVYRRYLMGNNSSEDSFLTANTVQPLAETGLQLSKRTLRTTPPQADAKSQLFAQSRRGQEVLTRVKQFMKQHVFPAEKEVAEYYAQSGNSAEKWGHPLVIEKLKEMAKAEGLWNLFLPAVSGLSQVDYALIAEETGKCFFAPDVFNCQAPDTGNMEVLHLYGSEQQKKQWLEPLLRGDITSVFCMTEPNVSSSDATNIECTIQRDGGGYIVNGKKWWSSGAGNPKCKIAIVLGRTESPSASRHRQHSMILVPMDTPGVELIRPLSVFGYMDNMHGGHWEVHFNHVRVPASNLILGEGRGFEISQGRLGPGRIHHCMRTVGLAERILQIMCDRAVQREAFKKKLYEHEVVAHWIAKSRIAIEEIRLLTLKAAHSIDTLGSASARKEIAMIKVAAPKAVCKIADWAIQVHGGAGVSQDYPLANMYAIIRTLRLANGPDEVHLSAIAKMELQDQARRLTARM | 4
